The values that follow come from patent publication US20250206828A1, “ANTI-ADENOSINE RECEPTOR (A2aR) ANTIBODIES AND THE USE THEREOF” (Adept Therapeutics Inc., priority 2022, published 2025).

Substitutions are numbered along the chain they refer to. Names and notes keep the numbering of the source.

To fix the notation:
B1: Hu1B5-H1/Hu1B5-L4 (antibody, human IgG1, V domains shown)
VH: QVQLVQSGAEVKKPGASVKVSCKASGFTFTRFWMNWVRQAPGQGLEWMGRIDPYDSETQYNHKFWDRVTMTRDTSTSTVYMELSSLRSEDTAVYYCGRSLYGKGDYWGQGTTVTVSS
VL: DVVMTQSPLSLPVTPGEPASISCRSSQSIVHSNGNTYLEWYLQKPGQSPQLLIYKVSNRFSGVPDRFSGSGSGTDFTLKISRVEAEDVGVYYCFQGSHVPLTFGGGTKVEIK
notes: Human IgG1 FES (L234F, L235E, P331S) and human Ig kappa constant domains
B2: Hu1B5-H2.1/Hu1B5-L3 (antibody, human IgG1, V domains shown)
VH: B1 VH with Q1E, A24T, M48I, R72V
VL: B1 VL with P15L, E17Q, L42Q, K44R, Q50R
notes: as for B1
B3: Hu1B5-H3/Hu1B5-L3 (antibody, human IgG1, V domains shown)
VH: B1 VH with Q1E, A24T, M48I, V68A, M70L, R72V, T76S
VL: B1 VL with P15L, E17Q, L42Q, K44R, Q50R
notes: as for B1
B4: Hu1B5-H2.1/Hu1B5-L5 (antibody, human IgG1, V domains shown)
VH: B1 VH with Q1E, A24T, M48I, R72V
VL: DIVMTQSPDSLAVSLGERATINCRSSQSIVHSNGNTYLEWYQQKPGQPPKLLIYKVSNRFSGVPDRFSGSGSGTDFTLTISSLQAEDVAVYYCFQGSHVPLTFGGGTKVEIK
notes: as for B1
B5: Hu1B5-H4/Hu1B5-L2 (antibody, human IgG1, V domains shown)
VH: B1 VH with Q1E, A24T, M48I, V68A, M70L, R72V, T74K, T76S
VL: B1 VL with P15L, E17Q, L42Q, K44R, Q50R, L51R
notes: as for B1
B6: Hu1B5-H3/Hu1B5-L2 (antibody, human IgG1, V domains shown)
VH: B1 VH with Q1E, A24T, M48I, V68A, M70L, R72V, T76S
VL: B1 VL with P15L, E17Q, L42Q, K44R, Q50R, L51R
notes: as for B1
B7: Hu1B5-H1/Hu1B5-L1 (antibody, human IgG1, V domains shown)
VH: B1 VH
VL: B1 VL with P15L, E17Q, Y41F, L42Q, K44R, Q50R, L51R
notes: as for B1
B8: Hu1B5-H2.1/Hu1B5-L2 (antibody, human IgG1, V domains shown)
VH: B1 VH with Q1E, A24T, M48I, R72V
VL: B1 VL with P15L, E17Q, L42Q, K44R, Q50R, L51R
notes: as for B1
B9: Hu1B5-H2/Hu1B5-L4 (antibody, human IgG1, V domains shown)
VH: B1 VH with Q1E, A24T, R72V
VL: B1 VL
notes: as for B1
B10: Hu1B5-H2.1/Hu1B5-L4 (antibody, human IgG1, V domains shown)
VH: B1 VH with Q1E, A24T, M48I, R72V
VL: B1 VL
notes: as for B1
B11: Hu1B5-H5/Hu1B5-L4 (antibody, human IgG1, V domains shown)
VH: B1 VH with Q1E, A24T, M48I, N61A, V68A, M70L, R72V, T74K, T76S
VL: B1 VL
notes: as for B1
B12: Hu1B5-H3/Hu1B5-L4 (antibody, human IgG1, V domains shown)
VH: B1 VH with Q1E, A24T, M48I, V68A, M70L, R72V, T76S
VL: B1 VL
notes: as for B1
B13: Hu1B5-H3/Hu1B5-L5 (antibody, human IgG1, V domains shown)
VH: B1 VH with Q1E, A24T, M48I, V68A, M70L, R72V, T76S
VL: B4 VL
notes: as for B1
B14: Hu1B5-H2/Hu1B5-L5 (antibody, human IgG1, V domains shown)
VH: B1 VH with Q1E, A24T, R72V
VL: B4 VL
notes: as for B1
B15: Hu1B5-H4/Hu1B5-L4 (antibody, human IgG1, V domains shown)
VH: B1 VH with Q1E, A24T, M48I, V68A, M70L, R72V, T74K, T76S
VL: B1 VL
notes: as for B1
B16: Hu1B5-H4/Hu1B5-L5 (antibody, human IgG1, V domains shown)
VH: B1 VH with Q1E, A24T, M48I, V68A, M70L, R72V, T74K, T76S
VL: B4 VL
notes: as for B1
B17: Hu1B5-H5/Hu1B5-L5 (antibody, human IgG1, V domains shown)
VH: B1 VH with Q1E, A24T, M48I, N61A, V68A, M70L, R72V, T74K, T76S
VL: B4 VL
notes: as for B1
B18: Hu1B5-H1/Hu1B5-L5 (antibody, human IgG1, V domains shown)
VH: B1 VH
VL: B4 VL
notes: as for B1
B19: Hu3F6-H4/Hu3F6-L2 (antibody, human IgG1, V domains shown)
VH: EVQLVQSGAEVKKPGASVKVSCKTSGFAFTSYWMNWVRQAPGQGLEWIGRIDPSDSEAHYHHKFWGRATLTVDKSSSTVYMELSSLRSEDTAVYYCLRSLYGKGDYWGHGTTVTVSS
VL: B1 VL with P15L, E17Q, I29L, S32R, L42Q, K44R, Q50R, L51R, F94Y
notes: as for B1
B20: Hu3F6-H2/Hu3F6-L7 (antibody, human IgG1, V domains shown)
VH: B19 VH with I48M, A68V, L70M, K74T, S76T
VL: B1 VL with S7T, L9P, T14N, I29L, S32R, T74S, R82W, F94Y
notes: as for B1
B21: Hu3F6-H1/Hu3F6-L1 (antibody, human IgG1, V domains shown)
VH: B19 VH with E1Q, T24A, I48M, A68V, L70M, V72R, K74T, S76T
VL: B1 VL with P15L, E17Q, I29L, S32R, Y41F, L42Q, K44R, Q50R, L51R, F94Y
notes: as for B1
B22: Hu3F6-H2/Hu3F6-L6 (antibody, human IgG1, V domains shown)
VH: B19 VH with I48M, A68V, L70M, K74T, S76T
VL: B1 VL with V2I, S7T, L9P, T14N, I29L, S32R, T74S, R82W, F94Y
notes: as for B1
B23: Hu3F6-H1/Hu3F6-L2 (antibody, human IgG1, V domains shown)
VH: B19 VH with E1Q, T24A, I48M, A68V, L70M, V72R, K74T, S76T
VL: B1 VL with P15L, E17Q, I29L, S32R, L42Q, K44R, Q50R, L51R, F94Y
notes: as for B1
B24: Hu3F6-H1/Hu3F6-L7 (antibody, human IgG1, V domains shown)
VH: B19 VH with E1Q, T24A, I48M, A68V, L70M, V72R, K74T, S76T
VL: B1 VL with S7T, L9P, T14N, I29L, S32R, T74S, R82W, F94Y
notes: as for B1
B25: Hu3F6-H3/Hu3F6-L6 (antibody, human IgG1, V domains shown)
VH: B19 VH with K74T
VL: B1 VL with V2I, S7T, L9P, T14N, I29L, S32R, T74S, R82W, F94Y
notes: as for B1
B26: Hu3F6-H4/Hu3F6-L4 (antibody, human IgG1, V domains shown)
VH: B19 VH
VL: B1 VL with V2I, S7T, P12S, E17Q, I29L, S32R, F94Y
notes: as for B1
B27: Hu3F6-H4/Hu3F6-L7 (antibody, human IgG1, V domains shown)
VH: B19 VH
VL: B1 VL with S7T, L9P, T14N, I29L, S32R, T74S, R82W, F94Y
notes: as for B1
B28: Hu3F6-H1/Hu3F6-L5 (antibody, human IgG1, V domains shown)
VH: B19 VH with E1Q, T24A, I48M, A68V, L70M, V72R, K74T, S76T
VL: B1 VL with S7T, P12S, E17Q, I29L, S32R, F94Y
notes: as for B1
B29: Hu3F6-H1/Hu3F6-L6 (antibody, human IgG1, V domains shown)
VH: B19 VH with E1Q, T24A, I48M, A68V, L70M, V72R, K74T, S76T
VL: B1 VL with V2I, S7T, L9P, T14N, I29L, S32R, T74S, R82W, F94Y
notes: as for B1
B30: Hu3F6-H2/Hu3F6-L1 (antibody, human IgG1, V domains shown)
VH: B19 VH with I48M, A68V, L70M, K74T, S76T
VL: B1 VL with P15L, E17Q, I29L, S32R, Y41F, L42Q, K44R, Q50R, L51R, F94Y
notes: as for B1
B31: Hu3F6-H5/Hu3F6-L6 (antibody, human IgG1, V domains shown)
VH: B19 VH with H61A
VL: B1 VL with V2I, S7T, L9P, T14N, I29L, S32R, T74S, R82W, F94Y
notes: as for B1
B32: Hu3F6-H5/Hu3F6-L7 (antibody, human IgG1, V domains shown)
VH: B19 VH with H61A
VL: B1 VL with S7T, L9P, T14N, I29L, S32R, T74S, R82W, F94Y
notes: as for B1
B33: Hu3F6-H4/Hu3F6-L3 (antibody, human IgG1, V domains shown)
VH: B19 VH
VL: B1 VL with P15L, E17Q, I29L, S32R, L42Q, K44R, Q50R, F94Y
notes: as for B1
B34: Hu3F6-H4/Hu3F6-L5 (antibody, human IgG1, V domains shown)
VH: B19 VH
VL: B1 VL with S7T, P12S, E17Q, I29L, S32R, F94Y
notes: as for B1
B35: Hu3F6-H4/Hu3F6-L6 (antibody, human IgG1, V domains shown)
VH: B19 VH
VL: B1 VL with V2I, S7T, L9P, T14N, I29L, S32R, T74S, R82W, F94Y
notes: as for B1
B36: Hu3F6-H1/Hu3F6-L4 (antibody, human IgG1, V domains shown)
VH: B19 VH with E1Q, T24A, I48M, A68V, L70M, V72R, K74T, S76T
VL: B1 VL with V2I, S7T, P12S, E17Q, I29L, S32R, F94Y
notes: as for B1
B37: Hu3F6-H1/Hu3F6-L3 (antibody, human IgG1, V domains shown)
VH: B19 VH with E1Q, T24A, I48M, A68V, L70M, V72R, K74T, S76T
VL: B1 VL with P15L, E17Q, I29L, S32R, L42Q, K44R, Q50R, F94Y
notes: as for B1
B38: Hu3F6-H3/Hu3F6-L7 (antibody, human IgG1, V domains shown)
VH: B19 VH with K74T
VL: B1 VL with S7T, L9P, T14N, I29L, S32R, T74S, R82W, F94Y
notes: as for B1
B39: Hu3F6-H6/Hu3F6-L6 (antibody, human IgG1, V domains shown)
VH: EVQLVQSGAEVKKPGESLRISCKASGFAFTSYWMNWVRQMPGKGLEWIGRIDPSDSEAHYHHKFWGHATLSVDKSSSTVYLQWSSLKASDTAMYYCLRSLYGKGDYWGHGTTVTVSS
VL: B1 VL with V2I, S7T, L9P, T14N, I29L, S32R, T74S, R82W, F94Y
notes: as for B1
B40: Hu3F6-H6/Hu3F6-L7 (antibody, human IgG1, V domains shown)
VH: B39 VH
VL: B1 VL with S7T, L9P, T14N, I29L, S32R, T74S, R82W, F94Y
notes: as for B1

The target of one test is T1, human adenosine A2A receptor (A2aR) (human, UniProt P29274 1-412).
T1 construct: Assays used HEK293 cells stably overexpressing human A2aR (BPS Bioscience 79381), human A2aR-expressing CHO cells, or endogenous A2aR on human PBMC; also called human A2aR; hA2aR
T1 sequence (P29274 whole entry): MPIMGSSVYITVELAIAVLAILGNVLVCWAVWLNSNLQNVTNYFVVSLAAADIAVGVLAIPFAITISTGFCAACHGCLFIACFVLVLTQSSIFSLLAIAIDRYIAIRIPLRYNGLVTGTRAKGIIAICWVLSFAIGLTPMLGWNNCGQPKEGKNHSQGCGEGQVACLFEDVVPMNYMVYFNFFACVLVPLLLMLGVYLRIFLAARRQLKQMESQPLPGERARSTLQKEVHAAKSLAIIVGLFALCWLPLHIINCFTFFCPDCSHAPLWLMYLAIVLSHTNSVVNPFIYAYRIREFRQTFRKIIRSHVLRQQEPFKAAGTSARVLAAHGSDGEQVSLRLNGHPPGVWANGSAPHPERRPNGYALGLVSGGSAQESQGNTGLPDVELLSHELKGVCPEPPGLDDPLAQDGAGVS
The test can be described thus: flow cytometry, HEK293-hA2aR cells, supernatant 1 ug/ml. For orientation: In flow cytometry, cells or beads pass a laser one at a time.
The molecule B1 showed an MFI of 1570 MFI.
B2 registered an MFI of 1860 MFI.
Same read-out and setting: then B3, with 1850 MFI; and B4, with 960 MFI; and B5, with 263 MFI.
The same measure, in the same setting: then B6, with 231 MFI; and B7, with 34 MFI; and B8, with 225 MFI.
On the same count and under the same terms, the value for B9 was 1630 MFI; that for B10 was 1720 MFI; that for B11 was 1710 MFI.
B12 yielded an MFI of 1550 MFI.
Still for that read-out and setting: the value for B13 was 686 MFI; that for B14 was 728 MFI; that for B15 was 1780 MFI.
The same measure, in the same setting: then B16, with 872 MFI; and B17, with 823 MFI; and B18, with 481 MFI.

The next test concerns the target T1, human adenosine A2A receptor (A2aR). The description is as above. This is another data set of the same source.
On to B19, for which the MFI turned out to be 255 MFI.
Still for that read-out and setting: then B20, with 1180 MFI.
B21 gave an MFI of 15 MFI.
Same read-out and setting: the value for B22 was 1580 MFI.
On the same count and under the same terms, the value for B23 was 14 MFI; that for B24 was 290 MFI; that for B25 was 1660 MFI.
B26 gave an MFI of 1450 MFI.
Same read-out and setting: the value for B27 was 1880 MFI.
The same measure, in the same setting: then B28, with 1500 MFI.
For the molecule B29, the MFI turned out to be 313 MFI.
On the same count and under the same terms, then B30, with 13 MFI; and B31, with 1840 MFI.
On the same count and under the same terms, then B32, with 1890 MFI.
Regarding B33, the MFI came out at 1960 MFI.
For the molecule B34, the MFI amounted to 1990 MFI.
As for B35, the MFI came to 1960 MFI.
Same read-out and setting: the value for B36 was 1320 MFI; that for B37 was 1600 MFI; that for B38 was 1510 MFI.
Still for that read-out and setting: then B39, with 979 MFI; and B40, with 1170 MFI.
